Target: T1, PPIA (Homo sapiens, UniProt P62937)
T1 construct: Full length PPIA (residues 1-165) with an N-terminal 6×his-yBBR-TEV tag; 6×his-yBBR-TEV (N); made in house; host or cells: E. coli BL21 (DE3) CodonPlus RIPL
Assay: Phage Library Screening with NGS, PPIA
Assay type: binding

[1] = target concentration 1000, first column
[2] = target concentration 1000, second column

T1 sequence (P62937 whole entry, the tested form may be a part): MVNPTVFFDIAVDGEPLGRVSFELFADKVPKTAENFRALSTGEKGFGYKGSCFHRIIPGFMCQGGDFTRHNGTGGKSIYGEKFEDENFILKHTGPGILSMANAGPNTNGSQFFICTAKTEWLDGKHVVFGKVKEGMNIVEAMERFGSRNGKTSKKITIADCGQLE

Sequence	phage screen counts, Target Concentration 10	phage screen counts, Target Concentration 30	phage screen counts, Target Concentration 100	phage screen counts, Target Concentration 300	phage screen counts, Target Concentration 1000 [1]	phage screen counts, Target Concentration 1000 [2]
DPAAFSCHVAAWQCHTL	0	1	156	199	142	190
DPAQHDCHVAAYQCIWE	0	52	273	416	616	456
DPAQLNCHVAAFFCFQS	0	0	21	27	125	8
DPARAACHVAAYWCYHQ	0	1	3	7	6	7
DPARADCHVAAYWCYHR	0	1	6	6	7	6
DPARADCHVAAYWCYQQ	0	1	6	8	10	10
DPARADCRVAAYWCYHQ	0	1	6	6	11	7
DPARSDCHVAAYWCYHQ	0	0	4	5	6	6

Next, values leading:

phage screen counts, Target Concentration 10	phage screen counts, Target Concentration 30	phage screen counts, Target Concentration 100	phage screen counts, Target Concentration 300	phage screen counts, Target Concentration 1000 [1]	phage screen counts, Target Concentration 1000 [2]	Sequence
0	7	116	208	201	121	DPAAHDCHIAAYWCLNY
0	0	25	29	20	55	DPALFDCHIAAYQCIFY
0	0	10	19	25	18	DPAQADCHIAAYLCLFD
0	0	4	5	8	7	DPARADCHVAAYWCHHQ
0	1	4	7	9	7	DPARADCHVAAYWCYHE
0	3	13	16	20	21	DPARADCQVAAYWCYHQ
